From US20240034774A1 (Gilead, published 2024)

B1: Antibody A-1 (antibody, human IgG1, kappa)
heavy: QVQLLQSGAAVTKPGASVRVSCEASGYNIRDYFIHWWRQAPGQGLQWVGWINPKTGQPNNPRQFQGRVSLTRHASWDFDTFSFYMDLKALRSDDTAVYFCARQRSDYWDFDVWGSGTQVTVSSASTKGPSVFPLAPSSKSTSGGTAALGCLVKDYFPEPVTVSWNSGALTSGVHTFPAVLQSSGLYSLSSVVTVPSSSLGTQTYICNVNHKPSNTKVDKKVEPKSCDKTHTCPPCPAPELLAGPDVFLFPPKPKDTLMISRTPEVTCVVVDVSHEDPEVKFNWYVDGVEVHNAKTKPREEQYNSTYRVVSVLTVLHQDWLNGKEYKCKVSNKALPLPEEKTISKAKGQPREPQVYTLPPSREEMTKNQVSLTCLVKGFYPSDIAVEWESNGQPENNYKTTPPVLDSDGSFFLYSKLTVDKSRWQQGNVFSCSVLHEALHSHYTQKSLSLSPGK
light: DIQMTQSPSSLSASVGDTVTITCQANGYLNWYQQRRGKAPKLLIYDGSKLERGVPSRFSGRRWGQEYNLTINNLQPEDIATYFCQVYEFVVPGTRLDLKRTVAAPSVFIFPPSDEQLKSGTASVVCLLNNFYPREAKVQWKVDNALQSGNSQESVTEQDSKDSTYSLSSTLTLSKADYEKHKVYACEVTHQGLSSPVTKSFNRGEC
B2: Antibody A (antibody, human IgG1, kappa)
heavy: not shown
light: DIQMTQSPSSLSASVGDTVTITCQANGYLNWYQQRRGKAPKLLIYDGSKLERGVPSRFSGRRWGQEYNLTINNLQPEDIATYFCQVYEFVVPGTRLDLKRTVAAPSVFIFPPSDEQLKSGTASVVCLLNNFYPREAKVQWKVDNALQSGNSQESVTEQDSKDSTYSLSSTLTLSKADYEKHKVYACEVTHQGLSSPVTKSFNRGEC
B3: Antibody 1.52.64-1 (antibody, human IgG1, kappa)
heavy: QVQLLQSGAAVTKPGASVRVSCEASGYNIRDYFIHWWRQAPGQGLQWVGWINPKTGQPNNPRQFQGRVSLTRHASFDFDTFSFYMDLKALRSDDTAVYFCARQRSDYWDFDVWGSGTQVTVSSASTKGPSVFPLAPSSKSTSGGTAALGCLVKDYFPEPVTVSWNSGALTSGVHTFPAVLQSSGLYSLSSVVTVPSSSLGTQTYICNVNHKPSNTKVDKKVEPKSCDKTHTCPPCPAPELLAGPDVFLFPPKPKDTLMISRTPEVTCVVVDVSHEDPEVKFNWYVDGVEVHNAKTKPREEQYNSTYRVVSVLTVLHQDWLNGKEYKCKVSNKALPLPEEKTISKAKGQPREPQVYTLPPSREEMTKNQVSLTCLVKGFYPSDIAVEWESNGQPENNYKTTPPVLDSDGSFFLYSKLTVDKSRWQQGNVFSCSVLHEALHSHYTQKSLSLSPGK
light: DIQMTQSPSSLSASVGDTATITCQANGYLNWYQQRRGKAPKLLIYDGSKLERGVPSRFSGRRWGQEYNLTINNLQPEDIATYFCQVYEFVVPGTRLDLKRTVAAPSVFIFPPSDEQLKSGTASVVCLLNNFYPREAKVQWKVDNALQSGNSQESVTEQDSKDSTYSLSSTLTLSKADYEKHKVYACEVTHQGLSSPVTKSFNRGEC

Tests used:
Cyno FcγRIII = target: T1, Cyno FcγRIII (cynomolgus macaque, UniProt Q8SPW2 17-208); test: SPR (Biacore 4000), antibody amine coupled to CM4 chip, cyno FcγRIII as analyte, steady-state fit
T1 construct: also called cynomolgus macaque FcγRIII
Experimental: (§1) The in vitro binding dissociation constants (KD) of selected antibodies described herein for human and cynomolgus macaque (cyno) Fc binding receptors (FcγRs, FcRn) were determined using the Biacore 4000 surface plasmon resonace (SPR) biosensor, and either C1 or CM4 sensor chips (GE Healthcare).
(§2) To determine cynomolgus macaque FcγRIIA, FcγRIIB, FcγRIII and FcγRI binding affinities each test antibody was amine coupled to a CM4 sensor chip at two densities (about 100 RU and about 800 RU). Cyno FcγRIIA and FcγRIIB were tested in a two-fold concentration series up to 1 μM. FcγRIII was tested in a two-fold concentration up to 500 nM. Cyno FcγRI was tested for binding using a two-step titration (3 nM and 30 nM). The response data for FcγRIIA, FcγRIIB, FcγRIII at steady-state were fit to a simple binding isotherm. Responses for FcγRI were fit to a simple kinetic model.

Human FcγRIIA-167R = target: T2, Human FcγRIIA-167R (human, UniProt P12318 36-218); test: SPR (Biacore 4000), receptor amine coupled to CM4 chip, antibody as analyte, steady-state fit
T2 sequence (looked up): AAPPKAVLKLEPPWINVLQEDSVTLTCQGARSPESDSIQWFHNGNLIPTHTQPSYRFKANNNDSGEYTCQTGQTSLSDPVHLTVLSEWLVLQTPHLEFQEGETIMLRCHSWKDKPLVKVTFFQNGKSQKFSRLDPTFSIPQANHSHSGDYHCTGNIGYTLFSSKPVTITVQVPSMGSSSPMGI

Human FcγRIIA-167H = target: T3, Human FcγRIIA-167H (human, UniProt P12318 36-218); test: as above
T3 sequence (looked up): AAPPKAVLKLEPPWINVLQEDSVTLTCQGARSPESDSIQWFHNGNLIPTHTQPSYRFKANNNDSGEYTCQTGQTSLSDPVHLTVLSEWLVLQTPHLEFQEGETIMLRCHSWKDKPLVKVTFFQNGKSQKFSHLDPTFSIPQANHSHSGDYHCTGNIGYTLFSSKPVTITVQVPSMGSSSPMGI

Human FcγRIIIA-176V = target: T4, Human FcγRIIIA-176V (human, UniProt P08637 17-208); test: as above
T4 construct: also called CD16a 176V

Human FcγRIIIA-176F = Human FcγRIIIA-176F (human, UniProt P08637 17-208); test: as above
gp120 CAAN = gp120 CAAN (HIV)
gp120 Bal = gp120 Bal (HIV-1)
gp120 REJO = gp120 REJO (HIV)
Cyno FcγRI = target: T5, Cyno FcγRI (cynomolgus macaque, UniProt A0A2K5U901 33-309); test: SPR (Biacore 4000), antibody amine coupled to CM4 chip, cyno FcγRI as analyte (3 and 30 nM), kinetic fit
T5 construct: also called cynomolgus macaque FcγRI
Experimental: as §1, §2

Human FcγRIIIB-NA2 = target: T6, Human FcγRIIIB-NA2 (human, UniProt O75015 17-200); test: SPR (Biacore 4000), antibody amine coupled to CM4 chip, FcγRIIIB as analyte, steady-state fit
T6 construct: also called CD16b NA2

Human FcγRIIIB-NA1 = target: T7, Human FcγRIIIB-NA1 (human, UniProt O75015 17-200); test: as above
T7 construct: also called CD16b NA1

Cyno FcγRIIB = target: T8, Cyno FcγRIIB (cynomolgus macaque); test: SPR (Biacore 4000), antibody amine coupled to CM4 chip, cyno FcγRIIB as analyte, steady-state fit
T8 construct: also called cynomolgus macaque FcγRIIB
Experimental: as §1, §2

Cyno FcRn [1] = target: T9, Cyno FcRn (cynomolgus macaque, UniProt Q8SPV9 24-297; Q8SPW0 21-119); test: SPR (Biacore 4000) at pH 6.0, biotinylated cyno FcRn captured on streptavidin C1 chip, antibody as analyte, steady-state fit
T9 construct: also called cynomolgus macaque FcRn; biotinylated cyno FcRn
Experimental: (§3) The in vitro binding dissociation constants (KD) of selected antibodies described herein for human and cynomolgus macaque (cyno) Fc binding receptors (FcγRs, FcRn) were determined using the Biacore 4000 surface plasmon resonace (SPR) biosensor, and either C1 or CM4 sensor chips (GE Healthcare). Biotinylated human FcRn was purchased from Immunitrack. Biotinylated cynomolgus macaque FcRn and human FcγRIIIB-NA1 and FcγRIIIB-NA2 were purchased from Acro Biosystems.
(§4) To determine cynomolgus macaque FcRn binding affinities, 600 RU of streptavidin was amine coupled to a C1 sensor chip using standard NHS/EDC coupling. The immobilization buffer was PBS+0.005% Tween 20, pH 7.4. Streptavidin was prepared at 50 μg/ml in 10 mM NaAc pH 4.5. Activation, coupling, and blocking steps were run for 10 minutes, each at 10 μl/min. Biotinylated cyno FcRn was captured to about 20 RU. Antibodies were tested for binding to the FcRn surface using a two-fold concentration series up to 1 μM. Data were collected at pH 6.0 and pH 7.4 in triplicate. The response data at steady-state were fit to a simple binding isotherm.

Human FcRn [2] = target: T10, Human FcRn (human, UniProt P55899 24-297; P61769 21-119); test: SPR (Biacore 4000) at pH 7.4, biotinylated FcRn captured on streptavidin C1 chip, antibody as analyte, steady-state fit
T10 construct: also called neonatal Fc-receptor; biotinylated human FcRn
Experimental: as §1
(§5) For human FcRn binding assays, 600 RU of streptavidin was amine coupled to a C1 sensor chip using standard NHS/EDC coupling. The immobilization buffer was PBS+0.005% Tween 20, pH 7.4. Streptavidin was prepared at 50 μg/ml in 10 mM NaAc pH 4.5. Activation, coupling, and blocking steps were run for 10 minutes, each at 10 μl/min. […] Data were collected at pH 6.0 and pH 7.4 in triplicate. The response data at steady-state were fit to a simple binding isotherm.

Cyno FcγRIIA = target: T11, Cyno FcγRIIA (cynomolgus macaque); test: SPR (Biacore 4000), antibody amine coupled to CM4 chip, cyno FcγRIIA as analyte, steady-state fit
T11 construct: also called cynomolgus macaque FcγRIIA
Experimental: as §1, §2

Cyno FcRn [3] = target: T9, Cyno FcRn; test: SPR (Biacore 4000) at pH 7.4, biotinylated cyno FcRn captured on streptavidin C1 chip, antibody as analyte, steady-state fit
Experimental: as §3, §4

Human FcγRIIB = target: T12, Human FcγRIIB (human, UniProt P31994 46-217); test: SPR (Biacore 4000), FcγRIIB/C amine coupled to CM4 chip, antibody as analyte, steady-state fit
T12 construct: also called FcγRIIB/C; FcRIIB/C
T12 sequence (looked up): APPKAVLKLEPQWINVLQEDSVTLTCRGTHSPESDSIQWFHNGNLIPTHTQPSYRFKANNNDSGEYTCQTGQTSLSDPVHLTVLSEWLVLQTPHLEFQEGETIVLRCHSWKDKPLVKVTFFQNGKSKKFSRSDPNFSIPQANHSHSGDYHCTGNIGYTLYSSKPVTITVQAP

Human FcRn [4] = target: T10, Human FcRn; test: SPR (Biacore 4000) at pH 6.0, biotinylated FcRn captured on streptavidin C1 chip, antibody as analyte, steady-state fit
Experimental: as §1, §5

Human FcγRI = target: T13, Human FcγRI (human, UniProt P12314 16-288); test: SPR (Biacore 4000), antibody amine coupled to CM4 chip, FcγRI as analyte (3 and 30 nM), kinetic fit
T13 construct: also called CD64
Experimental: as §3
To determine human FcγRI binding affinities, each test antibody was amine coupled to a CM4 sensor chip at two densities (about 100 RU and about 800 RU). Human FcγRI was tested for binding using a two-step titration series (3 nM and 30 nM). Responses were fit to a simple kinetic model.

human C1q protein = target: T14, human C1q protein (human, UniProt P02745 23-245; P02746 28-253; P02747 29-245); test: C1q binding ELISA, antibody coated on plate, titrated human C1q, anti-C1q-HRP detection, n = 3 assays
T14 construct: also called complement protein C1q
Experimental: A dose response binding ELISA was conducted to determine the relative C1q binding affinity of antibodies described herein. To conduct they assay, a 384-well Maxisorp plate was coated with 25 μl of antibody solution at 5 μg/mL in PBS pH 7.4 overnight at 4° C. Plates were then blocked with 75 μL of 1% BSA in PBS for 2 hours and washed 4 times with PBS+0.05% Tween 20 (PBST). Next, 25 μL of a three-fold serial dilution of human C1q protein in PBS+5% BSA was added to the plates. Plates were incubated with shaking at 600 rpm for one hour, washed 4 times with PBST and then 25 μL of anti-C1q-HRP conjugated polyclonal antibody was added in PBS+5% BSA. Plates were incubated with shaking at 600 rpm for 15 minutes, washed 8 times with PBST and then developed using 3,3′,5,5′-Tetramethylbenzidine (TMB) substrate and quenched with HCl.

Binder	Kd (Cyno FcγRIII) [nM]	Kd (Human FcγRIIA-167R) [nM]	Kd (Human FcγRIIA-167H) [nM]	Kd (Human FcγRIIIA-176V) [nM]	Kd (Human FcγRIIIA-176F) [nM]	EC50 (gp120 CAAN) [nM]	EC50 (gp120 Bal) [nM]	EC50 (gp120 REJO) [nM]	Kd (Cyno FcγRI) [nM]	Kd (Human FcγRIIIB-NA2) [nM]	Kd (Human FcγRIIIB-NA1) [nM]	Kd (Cyno FcγRIIB) [nM]	Kd (Cyno FcRn [1]) [nM]	Kd (Human FcRn [2]) [nM]	Kd (Cyno FcγRIIA) [nM]	Kd (Cyno FcRn [3]) [nM]	Kd (Human FcγRIIB) [nM]	Kd (Human FcRn [4]) [nM]	Kd (Human FcγRI) [nM]	EC50 (human C1q protein) [nM]
B1	7.1	130	131	59	52	2.17	0.06	2.37	0.005	56	59	240	16	1700	1100	4300	1600	38	0.002	
B2	200	3000	1800	670	2300	1.84	0.05	2.21	0.038	1500	2000	895	1100	42000	2000	12800	11000	485	0.107	2.2
B3	8	199	221	67	63	3.79	0.07	4.02	0.005	55	64	280	22	1120	1180	5300	1900	49	0.0012	
